From the nanobody polyreactivity screen of Harvey et al. (2022)

assay: yeast display, Sf9 membrane polyspecificity reagent, FACS + sequencing; frameworks hold sequencing errors
How it was run: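 Nanobodies came from a synthetic yeast display library in Saccharomyces cerevisiae BJ5465, induced with galactose for 36–48 hours and stained for 1 hour at 4 °C with 10% biotinylated, detergent-solubilized Sf9 membrane reagent. Cells were enriched on streptavidin microbeads and then FACS-sorted, with low and high (top ~1%) gates set on anti-HA fluorescence for expression and streptavidin fluorescence for reagent binding. Each polyreactivity label reflects the gate a clone came from. Genes were amplified by colony PCR, sequenced by MiSeq 2 × 250 and filtered by CDR length.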

| Sequence | polyreactivity (PSR sort gate) |
| --- | --- |
| QVQLVESGGGLVQAGGSLRLSCAASGIIFKRYAMGWYRQAPGKERELVATITRDGRTSYADSVKGRFTISRDNAKNTVYLQMNSLKPEDTAVYYCNKRGTYAPPTPGNLFDYWGQGTQVTVSS | low polyreactivity |
| QVQLVESGGGLVQAGGSLRLSCAASGIIFKWYGMGGYRQAPGKERELVAGITWRTGSTYYADSVKGRFTISRDNAKNTVYLQMNSLKPEDTAVYYCAARLYTYPKGKYWGQGTQVTVSS | high polyreactivity |
| QVQLVESGGGLVQAGGSLRLSCAASGIIFLDNAMVWYRQAPGKERELVAAITTGGITYYADSVKGRFTISRDNAKNTVYLQMNSLKPEDTAVYYCAADNEWPRYDYWGQGTQVTVSS | low polyreactivity |
| QVQLVESGGGLVQAGGSLRLSCAASGIIFLENAMGWYRQAPGKERELVAGISSGGNTNYADSVKGRFTISRDNAKNTVYLQMNSLKPEDTAVYYCNTDWYLPRYVLLGYFSGTEDYWGQGTQVTVSS | low polyreactivity |
| QVQLVESGGGLVQAGGSLRLSCAASGIIFLNYAMGWYRQAPGKERELVAAITTSGGNTYYADSVKGRFTISRDNAKNTVYLQMNSLKPEDTAVYYCAATDLYFWYPYWFAFEYDYWGQGTQVTVSS | high polyreactivity |
| QVQLVESGGGLVQAGGSLRLSCAASGIIFLWYAMGWYRQAPGKERELVAAISRTGSSTYYADSVKGRFTISRDNAKNTVYLQMNSLKPEDTAVYYCAAAYYSKRSWRFDYWGQGTQVTVSS | high polyreactivity |
| QVQLVESGGGLVQAGGSLRLSCAASGIIFLYYAMGWYRQAPGKERELVAAISSGGSTYYADSVKGRFTISRDNAKNTFYLQLNSLKPEDTAVYYCAVGRVGRFYYWGQGTQVSVSS | high polyreactivity |
| QVQLVESGGGLVQAGGSLRLSCAASGIIFNGNTMGWYRQAPGKERELVAAITSGGTTSYADSVKGRFTISRDNAKNTVYLQMNSLKPADTAVYYCAADHPAFGPGYSFDYWGQGTQVTVSS | low polyreactivity |
| QVQLVESGGGLVQAGGSLRLSCAASGIIFNSYAMGWYRQAPGKERELVATISGSGGSTYYADSVKGRFTISRDNAKNTVYFQMNSLKPEDTAVYSCAARTGRYYRRYDYWGQGTQVTVSS | high polyreactivity |
| QVQLVESGGGLVQAGGSLRLSCAASGIIFNYYAMGWYRQAPGKERELVAAISASGGSTYYADSVKGRFTISRDNAKNTVYLQMNSLKPEDTAVYYCNAAVLYRQYGRGDYWGQGTQVTVSS | low polyreactivity |
| QVQLVESGGGLVQAGGSLRLSCAASGIIFNYYAMGWYRQAPGKERELVAAISFSGGRTYYADSVKGRFTISRDNAKNTVYLQMNCLKPEDTAVYYCNAVYRNSILAFPGEYDYWGQGTQVTVSS | high polyreactivity |
| QVQLVESGGGLVQAGGSLRLSCAASGIIFPAYAMGWYRQEPGKDRELVAAISKRGGSTYYADSVKGRFTISRDNAKNTVYLQMNSLKPEDTAVYYCNVLLTQGATVGEYGYWGQGTQVTVSS | high polyreactivity |
| QVQLVESGGGLVQAGGSLRLSCAASGIIFPEYDRGWYRQAPGKERELVAAITKSDGRTYYADSVKGRFTISRDNAKNTVYLQMNSLKPEDTAVYYCNADPRVVAYLGFDSWGQGTQVTVSS | low polyreactivity |
| QVQLVESGGGLVQAGGSLRLSCAASGIIFPFYMGWYRQAPGKEREFVADITYSGGSTYYADSVKGRFTISRDNAKNTVYLQMNSLKPEDTAVYYCAAKFYWRGQSFRSGNFYWGQGTQVTVSS | high polyreactivity |
| QVQLVESGGGLVQAGGSLRLSCAASGIIFPGNAMGWNSQAPGKVRELVAAITSSDGSTYYADSVKGRFTISRDNAKNTVYVQMNSLKPEDTALYYCAADFKGLFSSELDYWGQGTQVTVSS | low polyreactivity |
| QVQLVESGGGLVQAGGSLRLSCAASGIIFPGYAMGWYRQAPGKERELVAAISSGGDTYYADSVKGRFTISRDNAKNTVYLQMNSLKPEDTAVYYCAAEYGLYAPGYYYWGQGTQVTVSS | low polyreactivity |
| QVQLVESGGGLVQAGGSLRLSCAASGIIFPGYAMGWYRQAPGKVRELVAAISSGGDTYYADSVKGLFTISRDNAKNTVYLQMNSLNPEDTAVYYCTAAQLSSDRTSTYGYWGQGTKVTVSS | low polyreactivity |
| QVQLVESGGGLVQAGGSLRLSCAASGIIFPYNAMGWYRQAPGKERELVAAITYRDGSTYYADSVKGRFTISRDNAKNTVYLQMNSLKPEDTAVYYCAADRYVYWDLYGYWGQGTQVTVSS | low polyreactivity |
| QVQLVESGGGLVQAGGSLRLSCAASGIIFPYYAMGWYRQAPGKERELVAAIDWSGTSTYYADSVKGRFTISRDNAKNTVYLQMNSLKPEDTAVYYCAADYPQAGLLYYYWGQGTQVTVSS | low polyreactivity |
| QVQLVESGGGLVQAGGSLRLSCAASGIIFPYYTMGWYRQAPGKERELVAAISTSGGSTYYADSVKGRFTISRDNAKNTVYLQMNSLKPEDTAVYFCAAELSYDYSHDYWGQGTQVTVSS | high polyreactivity |

| Sequence | polyreactivity (PSR sort gate) |
| --- | --- |
| QVQLVESGGGLVQAGGSLRLSCAASGIIFQGNAMGWYRQAPGKERELVAAISSGGSTYYADSVKGRFTISRDNAKNTVYLQMNSLKPEDTAVYYCNAGAYVRYDYWGQGTQVTVSS | low polyreactivity |
| QVQLVESGGGLVQAGGSLRLSCAASGIIFQRNAMGWYRQAPGKERELVAAISASGGSTNYADSVKGRFTISRDNAKNTVYLQMNSLKPEDTAVYYCAVPARGTFLLRDGGRAEFDYWGQGTQVTVSS | low polyreactivity |
| QVQLVESGGGLVQAGGSLRLSCAASGIIFQRNAMGWYRQAPGQERELVAAISSGGRTYYADSVKGRFTISRDNAKNTVYLQMNSLKPEDTAVYYCNAASYSRGRARYDYWGQGTQVTVSS | high polyreactivity |
| QVQLVESGGGLVQAGGSLRLSCAASGIIFQYNAMGWYRQAPGKEREFVAAISYGGTSTYYADSVKGRFTISRDNAKNTVYLQMNSLKPEDTAVYYCAADYQGYTPSDGRYYWGQGTQVTVSS | low polyreactivity |
| QVQLVESGGGLVQAGGSLRLSCAASGIIFQYYAMGWYRQAPGKERELVAAISWSGGSTYYADSVKGRFTISRDNAKNTVYLQMNRLKPEDTAVYYCAARSRSYWPYEGDYWGQGTQVTVSS | low polyreactivity |
| QVQLVESGGGLVQAGGSLRLSCAASGIIFQYYAMGWYRQAPGKERELVAAISWSGGSTYYADSVKGRFTISRDNAKNTVYLQMNSLKPEDTAVYYCAARSRSYWPYEGDYWGQGTQVTVSS | low polyreactivity |
| QVQLVESGGGLVQAGGSLRLSCAASGIIFQYYVMGWYRQAPGKERELVAAIDKSGGSTYYADSVKGRFTISRDNAKNTVYLQMNSLKPEDTAVYYCAATSYAHKYYGYFGAIKYEYWGQGTQVTVSS | low polyreactivity |
| QVQLVESGGGLVQAGGSLRLSCAASGIIFQYYVMGWYRQAPGKERELVAAIDKSGGSTYYADSVKGRFTISRDNAKNTVYLQMNSLKPEDTAVYYCNRDRGWTRFYVYSTGAWLYDYWGQGTQVTVSS | low polyreactivity |
| QVQLVESGGGLVQAGGSLRLSCAASGIIFRAYAMGWYRQAPGKERELVAAITSRGGSTYYADSVKGRFTISLDNAKNTVYLQKNSLKPEDTAVYYCAADFTIPYWDANFDYWGQGTQVTVSS | low polyreactivity |
| QVQLVESGGGLVQAGGSLRLSCAASGIIFRDYAMGWYRQAPGKERELVAAINLDGTSTYYADSVKGRFTISRDNAKKTVYLQMNSLKPEDTAVYYCAAEYDNADYINYFLDMYYWGQGTQVTVSS | low polyreactivity |
| QVQLVESGGGLVQAGGSLRLSCAASGIIFRGYFMGWYRQATGKERELVAAISTSGGRTSYADSVKGRFTISRDNAKNTVYLQMNSLKPEDTAVYYCAARPLYSYSHWGYGYWGQGTQVTVSS | high polyreactivity |
| QVQLVESGGGLVQAGGSLRLSCAASGIIFRGYVMGWYRQAPGKERELVADISRGGSTYYADSVKGRFTISRDNAKNTVYLQMNSQKPEDTAVYYCAKDYYACYWEMDYWGQGTQVTVSS | low polyreactivity |
| QVQLVESGGGLVQAGGSLRLSCAASGIIFRLYAMGWYRQAPGTERELVAAISRRGDSTYYADSVKGRFTISRDNAKNTGYVQMNSLKPEDTAVYYCAAVYVPYYWLGRSRGLDYWGQGTQVSVSS | high polyreactivity |
| QVQLVESGGGLVQAGGSLRLSCAASGIIFRPYAMGWYRQAPGKERELVAAITGSGVSTYYADSVKGRFTISRDNAKNTVYLQMNSLKPEDTAVYYCAKRYNRGYHRYDYWGQGTHVTVSS | low polyreactivity |
| QVQLVESGGGLVQAGGSLRLSCAASGIIFRQYAMGWSRQEPGKERELVAGITGTGSTYYADSVKGRFTISRDNAKNTVYLQLNSLKPEETAVYYCATRSFRVFYPYPYDYWGQGTQVTVSS | high polyreactivity |
| QVQLVESGGGLVQAGGSLRLSCAASGIIFRRYAMGWYRQGPGKERELVAAITHRGSTYYADSVKGRFTISRDNAKNTVYLQMNSLKPEDTAVYYCAADGFTRWGRYDYWGQGTQVTVSS | high polyreactivity |
| QVQLVESGGGLVQAGGSLRLSCAASGIIFRRYARGWYRQAPGKERELVAAITSGGDTNYADSVKGRFTISRDNAKNTVYLQMNSLKPEDTAVYYSNAGLRGVRRYGFDYWGQGTQVTVSS | high polyreactivity |
| QVQLVESGGGLVQAGGSLRLSCAASGIIFRTYAMGWYRQAPGKERELVAAISGTTGSKYYADSVKGRFTISRDNAKNTVYLQMNSLKPEDTAVYYCAADFYWYIRYDYWGQGTQVTVSS | low polyreactivity |
| QVQLVESGGGLVQAGGSLRLSCAASGIIFRVYAMGWYRQAPGKERELVAAITKGGGRTYYADSVKGRFTISRDIAKNTVYLQMNCLIPEDTAVYYCAARSSSRFEYWGQGTEVTVSS | high polyreactivity |
| QVQLVESGGGLVQAGGSLRLSCAASGIIFRWYTMGWFRQAPGKERELVAAITGRGGSTYYADSVKGRFTISRDNAKNTFYLQMNSLIPEDTAVYYCAAEGVRIGTRYDYWGQGTLVTVSS | high polyreactivity |
